Data set [1] concerns the molecule itself. The data set can be described thus: SEC; gel filtration chromatography; WT serially diluted from 2 mg/mL to 0.25 mg/mL; mutants compared with WT at matched concentrations by elution position. For orientation: Size exclusion chromatography separates by hydrodynamic size, large species first.
Data set [2] concerns the molecule itself. As to the kind of experiment: SEC-MALS; MBP-tagged WD40 domain injected at 2 mg/mL; in-line size exclusion column, three-angle light scattering and refractive index detectors.

Numbering of substitutions follows the chain as printed. Names and notes keep the numbering of the source.

B1: LRRK2 WD40 domain mutant M2408E (domain or fragment, human, UniProt Q5S007 2142-2527, looked up)
chain: RRILLPKNVIVECMVATHHNSRNASIWLGCGHTDRGQLSFLDLNTEGYTSEEVADSRILCLALVHLPVEKESWIVSGTQSGTLLVINTEDGKKRHTLEKMTDSVTCLYCNSFSKQSKQKNFLLVGTADGKLAIFEDKTVKLKGAAPLKILNIGNVSTPLMCLSESTNSTERNVMWGGCGTKIFSFSNDFTIQKLIETRTSQLFSYAAFSDSNIITVVVDTALYIAKQNSPVVEVWDKKTEKLCGLIDCVHFLREVMVKENKESKHKESYSGRVKTLCLQKNTALWIGTGGGHILLLDLSTRRLIRVIYNFCNSVRVMMTAQLGSLKNVMLVLGYNRKNTEGTQKQKEIQSCLTVWDINLPHEVQNLEKHIEVRKELAEKMRRTSVE
notes: LRRK2, human, WD40 domain, residues 2142-2527, with M2408E; Probably MBP-tagged and from Sf9 as the WT; methods in the SI Appendix; source: purified proteins
Regarding B1, the binding result in data set [1] was “binds”.

B2: LRRK2 WD40 domain PD-associated variant Y2189C (domain or fragment, human, UniProt Q5S007 2142-2527, looked up)
chain: B1 chain with Y48C, E267M
notes: LRRK2, human, WD40 domain, residues 2142-2527, with the PD-associated variant Y2189C; Probably MBP-tagged and from Sf9 as the WT; methods in the SI Appendix; source: purified proteins
As for B2, the binding result in data set [1] is recorded as “binds”.

B3: MBP-tagged LRRK2 WD40 domain, wild type (domain or fragment, human, UniProt Q5S007 2142-2527, looked up)
chain: B1 chain with E267M
notes: leucine-rich repeat kinase 2 (LRRK2), human, WD40 domain, residues 2142-2527; MBP-tagged monomer calculated at about 83 kDa; The tag is named for the MALS runs; also called WT WD40 domain; source: Sf9 insect cells via baculovirus infection, purified to homogeneity
On to B3, for which the stoichiometry N (in general, the number of molecules, sites or subunits per partner or assembly) in data set [2] is 2.

The values are drawn from publication PMC6358694, “Crystal structure of the WD40 domain dimer of LRRK2” (Proceedings of the National Academy of Sciences of the …, 2019).
